Laboratory results taken from patent publication US20170355757A1 (Regeneron, published 2017).

T1: hC5a (human, UniProt P01031 678-751)
T1 sequence (looked up): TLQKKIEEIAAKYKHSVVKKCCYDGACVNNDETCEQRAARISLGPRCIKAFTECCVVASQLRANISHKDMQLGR


What was measured:
human C5 R885C-mmh = human C5 R885C-mmh (human, UniProt P01031 19-1676); test: cell-based or functional assay
African green monkey C5 = African green monkey C5 (African green monkey); test: cell-based or functional assay
human C5 [1] = molecular target: T2, human C5 (human, UniProt P01031 19-1676); test: cell-based or functional assay
human C5 R885H-mmh = human C5 R885H-mmh (human, UniProt P01031 19-1676); test: cell-based or functional assay
human C5 [2] = molecular target: T2, human C5; test: cell-based or functional assay; remark: listed apart in the source
human C5 [3] = molecular target: T2, human C5; test: SPR (Biacore), mAb captured, dissociation of human C5 at pH7.4 vs pH6.0, 37°C
Method in brief: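 Anti-C5 mAbs (human IgG4 Fc) captured on an amine-coupled mouse anti-human Fc surface; recombinant C5 dissociation followed by Biacore T200 in PBS-T (0.01M phosphate, 0.15M NaCl, 0.05% Tween-20) at pH7.4 or pH6.0. Dissociative half-life (t½) calculated from kd.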

hC5a = molecular target: T1, hC5a; test: cell-based or functional assay

| Binder | IC50, inhibition of CDC of Daudi cells, C5 depleted human serum and 6.6 nM C5 Variant R885C, 30 nM anti-CD20 antibody (human C5 R885C-mmh) [nM] | IC50, inhibition of CDC of Daudi cells, 1.66% African Green monkey serum, 10 nM anti-CD20 antibody (African green monkey C5) [nM] | Max % Inhibition of CDC of Daudi cells, 1.66% African Green monkey serum, 10 nM anti-CD20 antibody (African green monkey C5) [%] | IC50, inhibition of CDC of Daudi cells, 1.66% human serum, 2 nM anti-CD20 antibody (human C5 [1]) [nM] | IC50, inhibition of CDC of Daudi cells, C5 depleted human serum and 6.6 nM C5 Variant R885H, 7 nM anti-CD20 antibody (human C5 R885H-mmh) [nM] | Human AP % Max Inhibition, hemolysis assay, 5% NHS (human C5 [2]) [%] | Human AP IC50, hemolysis assay, 5% NHS (human C5 [2]) [nM] | Human CP % Max Inhibition, hemolysis assay, 5% NHS (human C5 [2]) [%] | Human CP IC50, hemolysis assay, 5% NHS (human C5 [2]) [nM] | t½ Ratio pH7.4/pH6.0 (human C5 [3]) | IC50, inhibition of 500 pM hC5a in HEK293/Gα16/hC5aR1/NFAT-luc cells (hC5a) [M] |
| --- | --- | --- | --- | --- | --- | --- | --- | --- | --- | --- | --- |
| H4H12166P7 (antibody, human IgG4, V domains shown, histidine-mutated CDR variant of H4H12166P; human IgG4 (S108P)) VH: QVQLQESGPGLVKPSETLSLTCTVSGDSVSSSYWTWIRQPPGKGLEWIGYIYYSGSSNYNPSLKSRATISVDTSKNQFSLKLSSVTAADTAVYYCAREHNVDTTMIFDYWGQGTLVTVSS VL: AIQMTQSPSSLSASVGDRVTITCRASQGIRNDLGWYQQKPGKAPKLLIYAASSLQSGVPSRFAGRGSGTDFTLTISSLQPEDFATYYCLQDFNYPWHFGQGTKVEIK | 2.3 | > 60 | 61 | 7.3 | 4.2 | 83.2 | 156 | 93.7 | 24.3 | 21 | – |
| H4H12166P8 (antibody, human IgG4, V domains shown, histidine-mutated CDR variant of H4H12166P; human IgG4 (S108P)) VH: QVQLQESGPGLVKPSETLSLTCTVSGDSVSSSYWTWIRQPPGKGLEWIGYIYYSGSSNYNPSLKSRATISVDTSKNQFSLKLSSVTAADTAVYYCAREGNVDHTMIFDYWGQGTLVTVSS VL: AIQMTQSPSSLSASVGDRVTITCRASQGIRNDLGWYQQKPGKAPKLLIYAASSLQSGVPSRFAGRGSGTDFTLTISSLQPEDFATYYCHQDFNYPWTFGQGTKVEIK | 1.2 | > 20 | 79 | 4.1 | 2.1 | 73.3 | 73 | 95.7 | 14.1 | 36 | – |
| H4H12166P9 (antibody, human IgG4, V domains shown, histidine-mutated CDR variant of H4H12166P; human IgG4 (S108P)) VH: QVQLQESGPGLVKPSETLSLTCTVSGDSVSSSYWTWIRQPPGKGLEWIGYIYYSGSSNYNPSLKSRATISVDTSKNQFSLKLSSVTAADTAVYYCAREGNVDHTMIFDYWGQGTLVTVSS VL: AIQMTQSPSSLSASVGDRVTITCRASQGIRNDLGWYQQKPGKAPKLLIYAASSLQSGVPSRFAGRGSGTDFTLTISSLQPEDFATYYCLQDFNYPWHFGQGTKVEIK | 0.77 | > 10 | 85 | 3.9 | 1.7 | 72.2 | 53.5 | 93.7 | 11.6 | 28 | – |
| H4H12166P10 (antibody, human IgG4, V domains shown, histidine-mutated CDR variant of H4H12166P; human IgG4 (S108P)) VH: QVQLQESGPGLVKPSETLSLTCTVSGDSVSSSYWTWIRQPPGKGLEWIGYIYYSGSSNYNPSLKSRATISVDTSKNQFSLKLSSVTAADTAVYYCAREGNVDTTMIHDYWGQGTLVTVSS VL: AIQMTQSPSSLSASVGDRVTITCRASQGIRNDLGWYQQKPGKAPKLLIYAASSLQSGVPSRFAGRGSGTDFTLTISSLQPEDFATYYCLQDFNYPWHFGQGTKVEIK | 3.5 | > 100 | 34 | 12 | 7 | – | – | 74 | 44.4 | 19 | – |
| H2aM11682N (antibody, mouse IgG2, V domains shown) VH: QEQLVQSGAEVKKPGASVKVSCKASGYTFTGYYIHWVRQAPGLGLEWMGWINPNSGGTKYAQKFQGRVTMTRDTSINTAYMELKRLKSDDSAVYYCARDAPPHDVFDIWGQGTLVTVSS VL: DIQMTQSPSSLSASVGDRVTITCRASQGIRNDLGWYQQKPGKAPKRLIYAASSLQIGVPSRFSGSGSGTEFTLTISSLQPEDFATYYCLQHNSYPLTFGGGTKVEIK | – | – | – | – | – | – | – | – | – | – | 4.6e-10 |
| H2aM11684N (antibody, mouse IgG2, V domains shown) VH: QVQLQESGPGLVKPSQTLSLTCTVSGGSISSGAYHWSWIRQHPGKGLEWIGYIYYNGDTYYNPSLKSRVTISVDTSKNQFFLKVTSVTAADTAMYYCAGEKQLTAFDIWGQGTLVTVSS VL: VIQMTQSPSSLSASVGDRVTITCRASQDINNFLNWYQQKLGKAPKLLISDASNLQTGVPSRFSGSGSGTDFTFTISSLQPEDIAAYYCQQYDHFPYTFGQGTRLENN | – | – | – | – | – | – | – | – | – | – | 3.5e-11 |
| H2aM11694N (antibody, mouse IgG2, V domains shown) VH: EVQLVESGGGVVRPGGSLRLSCAASGFTFDDYGMTWVRQAPGKGLEWVSGINWNGDSTEYSDSVKGRFTISRDNAKNSLYLQMNSLRAEDTAFYHCARENNWNFYFDYWGQGTLVTVSS VL: EIVMTQSPATLSVSRGERATLSCRASQSVSSNLAWYQQKLGQAPRLLIYGASTRATGIPARFSGSGSGTEFTLTISSLQSEDFAVYYCQQYNNWPWTFGQGTKVEIK | – | – | – | – | – | – | – | – | – | – | 1.4e-10 |
| H2aM11695N (antibody, mouse IgG2, V domains shown) VH: QVHLVQSGAEVKKPGASVKVSCKVSGNTLTELSMHWVRQAPGKGLEWMGGFDPEDGDTIYSQKFQGRVTLTEDTSTDTAYMELSSLRSEDTAVYYCSTVGGPTSDCWGQGTLVTVSS VL: DIQMTQSPSSLSASVGDRVTITCQASQDISNYLNWYQQKPGKAPKVLIFDASNLEPGVPSRFSGSGSGTDFTFTIISLQPEDIATYYCQQYDNLPITFGQGTRLDIK | – | – | – | – | – | – | – | – | – | – | 4.2e-11 |
